Three compounds from US20130203655A1, “METHODS FOR PREVENTING OR TREATING VIRAL INFECTION” (priority 2010, published 2013) can be followed below.

In assay [1] the target is DENV2 E DI/II protein (monomeric, E residues 1-291, STST tag), wild type (Dengue virus 2 New Guinea C (NGC) strain). Put plainly: cell-based or functional assay.
Assay [2] addresses DENV2 E DI/II H244A protein (Dengue virus 2 New Guinea C (NGC) strain). Put plainly: cell-based or functional assay.
Assay [3] addresses DENV2 E′ protein (dimeric E ectodomain, E residues 1-395, ST tag) (Dengue virus 2 New Guinea C (NGC) strain). Briefly: cell-based or functional assay.
The subject of the next assay is DENV1 H244A prM-E VLP. To be noted: 20 mM NH4Cl, total 36 h, vs untreated cells. The method, then: (§1) Expression of prM-E and VLP production. WT and E H244A mutant DENV1 prM-E sequences were PCR-amplified from the pGDENV1 3.3 subclones described above, and cloned into pcDNA4/TO (Invitrogen, Life Technologies, Carlsbad, Calif.). These constructs were transfected into T-REx™-293 cells (Invitrogen, Life Technologies, Carlsbad, Calif.) using Lipofectamine™ 2000 (Invitrogen, Life Technologies, Carlsbad, Calif.) and selected in T-REx HEK medium containing 125 μg/ml Zeocin, all as previous described.
(§2) For VLP secretion studies, 2-3×10^6 cells were seeded in 10 cm plates, cultured for 24 h, and then induced by culture for 36 h in 1.5 μg/ml tetracycline in DME medium with 10% FCS at 37° C. The culture media were centrifuged at 10,000×g for 30 min to remove cell debris. VLPs were then pelleted through a 0.5 ml sucrose cushion by centrifugation at 54,000 rpm for 2 h at 4° C. using a TLS55 rotor. To test the effect of neutralizing the pH of acidic cellular compartments, cells were seeded and induced as above. After 2 h of induction the media were changed to DME medium containing 20 mM HEPES pH 8.0, 2% FCS, and 1.5 μg/ml tetracycline plus 20 mM NH4Cl as indicated, and the incubation continued for a total of 36 h. E proteins in the cell lysates were immunoprecipitated using mAb 4G2.

For another assay, the system named is DENV1 WT prM-E VLP. The conditions noted are these: 20 mM NH4Cl-treated vs untreated cells. The method, then: as §1, §2

In the case of “DENV2 NGC DIII protein (LDIIIH1CS, E residues 289-430)”, the DI/II co-floatation with liposomes at low pH in the presence of DIII (none with BSA in place of DIII) in assay [1] was 25%.
For the compound “recombinant DENV2 pr peptide (prM residues 1-86 with N-terminal GS and C-terminal tandem Strep tag)”, in assay [2], the efficiency of floatation of H244A DI/II with liposomes, in the absence of pr was 43% and the efficiency of floatation of H244A DI/II with liposomes, in the presence of pr is 47%. In assay [3], the E′ co-floatation with liposomes at pH 5.75, pr:E′ molar ratio 12:1 (about 70% with a control protein) is 2%; the E′ co-floatation with liposomes, pr:E′ molar ratio 3:1 came to 22%; the E′ co-floatation with liposomes, pr:E′ molar ratio 6:1 was determined as 8%; the E′ co-floatation with liposomes, pr:E′ molar ratio 24:1 is 0.4%.
On to `Cl.N` [NH4Cl], for which, in the assay with DENV1 H244A prM-E VLP, the “increase in production of VLP containing H244A mutant E protein” value was 4-7 fold. Further, the “WT VLP production” value in the assay on DENV1 WT prM-E VLP is listed as “similar”.
